Source: patent publication US8865867

target: HIV-1 consensus subtype C envelope (HIV-1); assay: cell-based or functional assay

**Q.** BanLec H84Y was tested. Which IC50(nM), inhibition of infection of TZM-bl cells by pseudotyped HIV-1 did it give?
**A.** 0.29 nM

**Q.** For BanLec H84T, which Fold Decrease in Anti-HIV activity (IC50 of mutant / IC50 of wild-type BanLec) is on record?
**A.** 23 fold

**Q.** What about the IC50(nM), inhibition of infection of TZM-bl cells by pseudotyped HIV-1 of the same substance?
**A.** 7 nM

**Q.** For BanLec H84S, which Fold Decrease in Anti-HIV activity (IC50 of mutant / IC50 of wild-type BanLec) is on record?
**A.** 4.1 fold

**Q.** And the IC50(nM), inhibition of infection of TZM-bl cells by pseudotyped HIV-1?
**A.** 1.6 nM

**Q.** BanLec H84A was tested. Which Fold Decrease in Anti-HIV activity (IC50 of mutant / IC50 of wild-type BanLec) did it give?
**A.** 2.5 fold

**Q.** What about the IC50(nM), inhibition of infection of TZM-bl cells by pseudotyped HIV-1 of the same substance?
**A.** 0.7 nM

**Q.** Which Fold Decrease in Anti-HIV activity (IC50 of mutant / IC50 of wild-type BanLec) does the source give for BanLec H84M here?
**A.** 21 fold

**Q.** And the IC50(nM), inhibition of infection of TZM-bl cells by pseudotyped HIV-1?
**A.** 7.7 nM

target: HIV-1 envelope (isolate used on monocyte-derived macrophages, not named) (HIV-1); assay: cell-based or functional assay

**Q.** With BanLec as the substance, how does the IC50 of inhibition of HIV-1 replication in MDM, 7 days read?
**A.** 9.72 nM
